Legend:
Assay in all cases: BLI (Octet), table of in vitro binding affinities
[1] = biological target: T1, c-CDCP1-Fc (Cut 1) (human, UniProt Q9H5V8 30-365; Q9H5V8 366-667)
T1 construct: Co-transfection of NTF and CTF-Fc plasmids; not shown: Fc domain
T1 sequence 1: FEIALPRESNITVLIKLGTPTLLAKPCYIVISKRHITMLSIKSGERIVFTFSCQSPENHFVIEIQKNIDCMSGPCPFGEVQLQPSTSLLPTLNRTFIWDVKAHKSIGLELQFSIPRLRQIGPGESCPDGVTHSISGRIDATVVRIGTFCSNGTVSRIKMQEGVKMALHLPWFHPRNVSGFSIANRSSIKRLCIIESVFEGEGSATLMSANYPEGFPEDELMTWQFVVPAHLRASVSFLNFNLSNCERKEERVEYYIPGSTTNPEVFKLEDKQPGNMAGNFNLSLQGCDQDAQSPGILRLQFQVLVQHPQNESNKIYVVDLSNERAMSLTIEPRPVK
T1 sequence 2: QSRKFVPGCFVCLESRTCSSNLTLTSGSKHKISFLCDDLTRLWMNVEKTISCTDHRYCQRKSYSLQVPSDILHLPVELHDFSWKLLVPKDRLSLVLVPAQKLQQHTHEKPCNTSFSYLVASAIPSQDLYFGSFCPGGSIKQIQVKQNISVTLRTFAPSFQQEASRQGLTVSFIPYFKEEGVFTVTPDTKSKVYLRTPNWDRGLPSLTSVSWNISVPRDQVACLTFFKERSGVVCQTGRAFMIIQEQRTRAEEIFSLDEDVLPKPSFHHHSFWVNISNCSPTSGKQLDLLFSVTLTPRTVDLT
Procedure: (§1) BLI experiments were performed using an Octet RED384 instrument (ForteBio). Biotinylated proteins were immobilized on a streptavidin (SA) biosensor and His-tagged proteins were immobilized on a Ni-NTA biosensor. Different concentrations of analyte in PBS pH 7.4+0.05% Tween-20+0.2% BSA (PBSTB) were used as analyte. Affinities (KDS) were calculated from a global fit (1:1) of the data using the Octet RED384 software.

[2] = biological target: T2, c-CDCP1-Fc (Cut 2) (human, UniProt Q9H5V8 30-368; Q9H5V8 369-667)
T2 construct: Co-transfection of NTF and CTF-Fc plasmids; not shown: Fc domain
T2 sequence 1: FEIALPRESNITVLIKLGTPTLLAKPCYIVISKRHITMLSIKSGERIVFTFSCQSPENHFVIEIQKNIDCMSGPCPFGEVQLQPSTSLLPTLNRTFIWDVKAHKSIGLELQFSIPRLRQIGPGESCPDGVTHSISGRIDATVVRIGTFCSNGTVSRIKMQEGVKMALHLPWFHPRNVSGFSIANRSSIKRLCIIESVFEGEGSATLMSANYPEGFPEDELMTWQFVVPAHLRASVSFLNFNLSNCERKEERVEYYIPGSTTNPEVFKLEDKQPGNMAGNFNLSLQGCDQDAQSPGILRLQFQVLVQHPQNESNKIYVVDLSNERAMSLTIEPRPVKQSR
T2 sequence 2: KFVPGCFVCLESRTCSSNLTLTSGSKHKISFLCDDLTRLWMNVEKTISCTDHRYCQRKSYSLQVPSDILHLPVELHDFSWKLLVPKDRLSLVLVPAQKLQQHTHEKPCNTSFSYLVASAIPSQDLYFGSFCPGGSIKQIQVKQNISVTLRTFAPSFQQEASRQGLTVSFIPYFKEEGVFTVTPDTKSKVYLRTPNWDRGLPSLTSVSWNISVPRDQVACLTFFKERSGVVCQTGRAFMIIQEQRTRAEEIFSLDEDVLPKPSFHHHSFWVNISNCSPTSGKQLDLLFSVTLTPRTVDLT
Procedure: as §1

[3] = biological target: T3, c-CDCP1-Fc (Cut 3) (human, UniProt Q9H5V8 30-369; Q9H5V8 370-667)
T3 construct: Co-transfection of NTF and CTF-Fc plasmids; not shown: Fc domain
T3 sequence 1: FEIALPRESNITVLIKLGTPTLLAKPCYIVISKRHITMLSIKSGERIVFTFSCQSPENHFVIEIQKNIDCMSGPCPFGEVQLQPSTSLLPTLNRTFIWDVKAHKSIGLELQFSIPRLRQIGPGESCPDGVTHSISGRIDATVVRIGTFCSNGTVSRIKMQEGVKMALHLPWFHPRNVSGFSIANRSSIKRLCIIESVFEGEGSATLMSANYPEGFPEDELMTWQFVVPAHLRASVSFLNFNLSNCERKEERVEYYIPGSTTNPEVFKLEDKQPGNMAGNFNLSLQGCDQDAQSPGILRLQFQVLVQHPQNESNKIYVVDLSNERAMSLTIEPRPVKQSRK
T3 sequence 2: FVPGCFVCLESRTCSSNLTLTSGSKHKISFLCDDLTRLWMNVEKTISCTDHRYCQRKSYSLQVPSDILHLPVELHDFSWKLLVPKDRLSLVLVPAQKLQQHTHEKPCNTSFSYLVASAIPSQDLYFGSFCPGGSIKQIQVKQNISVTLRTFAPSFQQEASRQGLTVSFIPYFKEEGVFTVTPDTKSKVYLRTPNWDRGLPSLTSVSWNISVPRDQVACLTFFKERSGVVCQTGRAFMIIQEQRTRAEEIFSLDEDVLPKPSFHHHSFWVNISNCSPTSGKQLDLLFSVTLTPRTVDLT
Procedure: as §1

B1: CL03 IgG (antibody, V domains shown)
VH: EVQLVESGGGLVQPGGSLRLSCAASGFNFSSYSIHWVRQAPGKGLEWVASIYPYSGSTYYADSVKGRFTISADTSKNTAYLQMNSLRAEDTAVYYCARQSHSYYSHTWWVSYGMDYWGQGTLVTVSS
VL: DIQMTQSPSSLSASVGDRVTITCRASQSVSSAVAWYQQKPGKAPKLLIYSASSLYSGVPSRFSGSRSGTDFTLTISSLQPEDFATYYCQQSGQRPITFGQGTKVEIKR
notes: also called IgG CL03
[1]
  Kd: 840 pM
  koff: 0.000535 s⁻¹
  kon: 640000 M⁻¹ s⁻¹
[2]
  Kd: 370 pM
  koff: 0.000174 s⁻¹
  kon: 473000 M⁻¹ s⁻¹
[3]
  Kd: 150 pM
  koff: 7.43e-05 s⁻¹
  kon: 492000 M⁻¹ s⁻¹

Source: patent US20240376224A1 (University of California, published 2024)
